Common to all, as to assay: ELISA
A general note: ELISA stands for enzyme-linked immunosorbent assay.

In test [1] the target is T1, mOX40-Fc (mouse, UniProt P47741 20-211).
T1 sequence (looked up): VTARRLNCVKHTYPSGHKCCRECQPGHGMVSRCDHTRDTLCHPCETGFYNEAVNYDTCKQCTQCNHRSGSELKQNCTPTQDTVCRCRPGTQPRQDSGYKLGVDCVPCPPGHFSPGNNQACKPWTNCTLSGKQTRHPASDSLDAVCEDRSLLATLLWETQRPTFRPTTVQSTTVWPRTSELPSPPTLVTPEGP

Test [2] addresses T2, m4-1BB-Fc (mouse, UniProt P20334 24-187).
T2 sequence (looked up): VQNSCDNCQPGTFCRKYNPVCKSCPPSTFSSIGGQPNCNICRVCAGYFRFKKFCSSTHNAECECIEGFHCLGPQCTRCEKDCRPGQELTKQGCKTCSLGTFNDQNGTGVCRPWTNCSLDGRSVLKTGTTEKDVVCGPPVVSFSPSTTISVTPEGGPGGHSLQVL

Test [3] addresses CD40-huFc (UniProt P25942 21-193).
Test [4] addresses T3, CD27-moFc (UniProt P26842 20-191).
T3 sequence (looked up): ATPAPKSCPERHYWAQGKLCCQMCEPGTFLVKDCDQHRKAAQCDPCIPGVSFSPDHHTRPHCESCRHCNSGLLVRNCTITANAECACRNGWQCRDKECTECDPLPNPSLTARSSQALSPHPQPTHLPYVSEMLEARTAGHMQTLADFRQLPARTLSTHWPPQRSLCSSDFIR

Test [5] concerns the target T4, OX40-moFc (UniProt P43489 29-214).
T4 sequence (looked up): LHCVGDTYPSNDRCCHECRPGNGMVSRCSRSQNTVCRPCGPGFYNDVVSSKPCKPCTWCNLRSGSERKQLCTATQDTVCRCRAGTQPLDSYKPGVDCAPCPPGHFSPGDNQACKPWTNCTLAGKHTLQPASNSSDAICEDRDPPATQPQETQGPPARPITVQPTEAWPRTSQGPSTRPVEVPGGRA

The target of test [6] is CD40-moFc (UniProt P25942 21-193).
Chain of CD40-moFc (P25942 21-193): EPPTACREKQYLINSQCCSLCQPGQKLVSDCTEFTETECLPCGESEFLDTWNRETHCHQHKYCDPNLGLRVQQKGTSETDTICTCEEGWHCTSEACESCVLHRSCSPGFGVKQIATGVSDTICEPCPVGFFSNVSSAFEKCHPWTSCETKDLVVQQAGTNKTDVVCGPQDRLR

Chain of CD40-huFc (P25942 21-193): as above

B1: msc4-1BBL-mscOX40L-mFc (Fc fusion)
chain 1: RTEPRPALTITTSPNLGTRENNADQVTPVSHIGCPNTTQQGSPVFAKLLAKNQASLCNTTLNWHSQDGAGSSYLSQGLRYEEDKKELVVDSPGLYYVFLELKLSPTFTNTGHKVQGWVSLVLQAKPQVDDFDNLALTVELFPCSMENKLVDRSWSQLLLLKAGHRLSVGLRAYLHGAQDAYRDWELSYPNTTSFGLFLVKPDNPWEGGGGSGGGGSGGGGSGGGGSRTEPRPALTITTSPNLGTRENNADQVTPVSHIGCPNTTQQGSPVFAKLLAKNQASLCNTTLNWHSQDGAGSSYLSQGLRYEEDKKELVVDSPGLYYVFLELKLSPTFTNTGHKVQGWVSLVLQAKPQVDDFDNLALTVELFPCSMENKLVDRSWSQLLLLKAGHRLSVGLRAYLHGAQDAYRDWELSYPNTTSFGLFLVKPDNPWEGGGGSGGGGSGGGGSGGGGSRTEPRPALTITTSPNLGTRENNADQVTPVSHIGCPNTTQQGSPVFAKLLAKNQASLCNTTLNWHSQDGAGSSYLSQGLRYEEDKKELVVDSPGLYYVFLELKLSPTFTNTGHKVQGWVSLVLQAKPQVDDFDNLALTVELFPCSMENKLVDRSWSQLLLLKAGHRLSVGLRAYLHGAQDAYRDWELSYPNTTSFGLFLVKPDNPWE
chain 2: SSSPAKDPPIQRLRGAVTRCEDGQLFISSYKNEYQTMEVQNNSVVIKCDGLYIIYLKGSFFQEVKIDLHFREDHNPISIPMLNDGRRIVFTVVASLAFKDKVYLTVNAPDTLCEHLQINDGELIVVQLTPGYCAPEGSYHSTVNQVPLGGGGSGGGGSGGGGSSSSPAKDPPIQRLRGAVTRCEDGQLFISSYKNEYQTMEVQNNSVVIKCDGLYIIYLKGSFFQEVKIDLHFREDHNPISIPMLNDGRRIVFTVVASLAFKDKVYLTVNAPDTLCEHLQINDGELIVVQLTPGYCAPEGSYHSTVNQVPLGGGGSGGGGSGGGGSSSSPAKDPPIQRLRGAVTRCEDGQLFISSYKNEYQTMEVQNNSVVIKCDGLYIIYLKGSFFQEVKIDLHFREDHNPISIPMLNDGRRIVFTVVASLAFKDKVYLTVNAPDTLCEHLQINDGELIVVQLTPGYCAPEGSYHSTVNQVPL
For B1, the concentration giving a half-maximal response (EC50) – broadly, the concentration needed to bring the measured effect to its halfway point – came out at 55.2 nM in test [1] and 9.2 nM in test [2].

B2: scCD40L-scCD27L-Fc (Fc fusion, human)
chain 1: GDQNPQIAAHVISEASSKTTSVLQWAEKGYYTMSNNLVTLENGKQLTVKRQGLYYIYAQVTFCSNREASSQAPFIASLCLKSPGRFERILLRAANTHSSAKPCGQQSIHLGGVFELQPGASVFVNVTDPSQVSHGTGFTSFGLLKLGGGDQNPQIAAHVISEASSKTTSVLQWAEKGYYTMSNNLVTLENGKQLTVKRQGLYYIYAQVTFCSNREASSQAPFIASLCLKSPGRFERILLRAANTHSSAKPCGQQSIHLGGVFELQPGASVFVNVTDPSQVSHGTGFTSFGLLKLGGGDQNPQIAAHVISEASSKTTSVLQWAEKGYYTMSNNLVTLENGKQLTVKRQGLYYIYAQVTFCSNREASSQAPFIASLCLKSPGRFERILLRAANTHSSAKPCGQQSIHLGGVFELQPGASVFVNVTDPSQVSHGTGFTSFGLLKL
chain 2: SLGWDVAELQLNHTGPQQDPRLYWQGGPALGRSFLHGPELDKGQLRIHRDGIYMVHIQVTLAICSSTTASRHHPTTLAVGICSPASRSISLLRLSFHQGCTIASQRLTPLARGDTLCTNLTGTLLPSRNTDETFFGVQWVRPGGSLGWDVAELQLNHTGPQQDPRLYWQGGPALGRSFLHGPELDKGQLRIHRDGIYMVHIQVTLAICSSTTASRHHPTTLAVGICSPASRSISLLRLSFHQGCTIASQRLTPLARGDTLCTNLTGTLLPSRNTDETFFGVQWVRPGGSLGWDVAELQLNHTGPQQDPRLYWQGGPALGRSFLHGPELDKGQLRIHRDGIYMVHIQVTLAICSSTTASRHHPTTLAVGICSPASRSISLLRLSFHQGCTIASQRLTPLARGDTLCTNLTGTLLPSRNTDETFFGVQWVRP
As for B2, the values for the EC50 in test [3] and in test [4] were 0.1 nM and 0.3 nM, respectively.

B3: scCD40L-scOX40L-Fc (Fc fusion, human)
chain 1: GDQNPQIAAHVISEASSKTTSVLQWAEKGYYTMSNNLVTLENGKQLTVKRQGLYYIYAQVTFCSNREASSQAPFIASLCLKSPGRFERILLRAANTHSSAKPCGQQSIHLGGVFELQPGASVFVNVTDPSQVSHGTGFTSFGLLKLGGGDQNPQIAAHVISEASSKTTSVLQWAEKGYYTMSNNLVTLENGKQLTVKRQGLYYIYAQVTFCSNREASSQAPFIASLCLKSPGRFERILLRAANTHSSAKPCGQQSIHLGGVFELQPGASVFVNVTDPSQVSHGTGFTSFGLLKLGGGDQNPQIAAHVISEASSKTTSVLQWAEKGYYTMSNNLVTLENGKQLTVKRQGLYYIYAQVTFCSNREASSQAPFIASLCLKSPGRFERILLRAANTHSSAKPCGQQSIHLGGVFELQPGASVFVNVTDPSQVSHGTGFTSFGLLKL
chain 2: QVSHRYPRIQSIKVQFTEYKKEKGFILTSQKEDEIMKVQNNSVIINCDGFYLISLKGYFSQEVNISLHYQKDEEPLFQLKKVRSVNSLMVASLTYKDKVYLNVTTDNTSLDDFHVNGGELILIHQNPGEFCVLGGGGSGGGGSGGGGSQVSHRYPRIQSIKVQFTEYKKEKGFILTSQKEDEIMKVQNNSVIINCDGFYLISLKGYFSQEVNISLHYQKDEEPLFQLKKVRSVNSLMVASLTYKDKVYLNVTTDNTSLDDFHVNGGELILIHQNPGEFCVLGGGGSGGGGSGGGGSQVSHRYPRIQSIKVQFTEYKKEKGFILTSQKEDEIMKVQNNSVIINCDGFYLISLKGYFSQEVNISLHYQKDEEPLFQLKKVRSVNSLMVASLTYKDKVYLNVTTDNTSLDDFHVNGGELILIHQNPGEFCVL
On to B3, for which the EC50 in test [3] stood at 0.5 nM; in test [5], 0.2 nM; in test [6], 0.3 nM.

The values are drawn from publication PMC8786347 (Oncoimmunology, 2022).
